Results published in patent publication US20190144529A1 (UCB, published 2019).
Each block holds one binder with its values, some of them ahead of it.

Tests used:
human serum albumin [1] = biological target: T1, human serum albumin (human, UniProt P02768 25-609); test: SPR, rabbit Fab
T1 construct: mature; Bought purified serum albumin; also called HSA; Human albumin

mouse serum albumin [2] = biological target: T2, mouse serum albumin (mouse, UniProt P07724 25-608); test: SPR, rabbit Fab
T2 construct: mature; Bought purified serum albumin; also called MSA; Mouse albumin

rat serum albumin [3] = biological target: T3, rat serum albumin (rat, UniProt P02770 25-608); test: FMAT, B cell supernatant
T3 construct: mature; Bought purified serum albumin; also called RSA; Rat albumin

human serum albumin [4] = biological target: T1, human serum albumin; test: SPR, Fab captured; albumin taken as HSA
Method: (§1) Each assay cycle consisted of firstly capturing the antibody sample using a 1 min injection, before an association phase consisting of a 3 min injection of albumin, after which dissociation was monitored. After each cycle, the capture surface was regenerated with two 1 min injections of 40 mM HCl followed by 30 s of 5 mM NaOH. The flow rates used were 10 μl/min for capture, 30 μl/min for both the association and dissociation phases, and 10 μl/min for regeneration. A blank flow-cell was used for reference subtraction and buffer-blank injections were included to subtract instrument noise and drift.

rat serum albumin [5] = biological target: T3, rat serum albumin; test: SPR, humanized IgG1
Method: (§2) For analysis at pH 7.0, 6.0, 5.5 and 5.0, a running buffer of 40 mM citric acid, 80 mM sodium phosphate 50 mM NaCl, 3 mM EDTA, 0.05% v/v P20 was used. The required pH was achieved by altering the ratio of citric acid to sodium phosphate. All experiments were performed at 25° C. The antibody samples were captured to the sensor chip surface using either a human F(ab′)₂-specific or human Fc-specific goat Fab (Jackson ImmunoResearch). Covalent immobilisation of the capture antibody was achieved by standard amine coupling chemistry to a level of 6000-7000 response units (RU).
as §1

human serum albumin [6] = biological target: T1, human serum albumin; test: SPR, humanized IgG1
Method: as §2, §1

mouse serum albumin [7] = biological target: T2, mouse serum albumin; test: SPR, humanized IgG1
Method: as §2, §1

human serum albumin [8] = biological target: T1, human serum albumin; test: SPR, Fab captured; albumin taken as HSA; remark: listed apart in the source
Method: as §1

human serum albumin [9] = biological target: T1, human serum albumin; test: SPR, Fab captured, HSA
Method: as §2, §1

human serum albumin [10] = biological target: T1, human serum albumin; test: SPR, Fab captured, albumin titrated
Method: as §2, §1

mouse serum albumin [11] = biological target: T2, mouse serum albumin; test: SPR, Fab captured, albumin titrated
Method: as §2, §1

human serum albumin [12] = biological target: T1, human serum albumin; test: SPR, HSA
Method: as §2, §1

mouse serum albumin [13] = biological target: T2, mouse serum albumin; test: SPR
Method: as §2, §1

B1: CA645 recombinant rabbit Fab (Fab, V domains shown)
VH: QSLEESGGRLVTPGTPLTLTCTVSGIDLSNYAINWVRQAPGKGLEWIGIIWASGTTFYATWAKGRFTISRPSTTVDLEMTSLTTADTATYFCARTVPGYSTAPYFDLWGPGTLVTVSS
VL: AAVLTQTPSPVSAAVGGTVTINCQSSPSVWSNFLSWYQQKPGQPPKLLIYEASKLTSGVPSRFKGSGSGTQFTLTISDVQCGDAATYYCGGGYSSISDTTFGGGTKVVVK
notes: Fab with rabbit heavy CH1 and rabbit light chain constant region
Kd (human serum albumin [1]): 0.31 nM | Kd (mouse serum albumin [2]): 2.6 nM

B5: CA645 gL31gH5 Fab (Fab, V domains shown)
VH: EVQLLESGGGLVQPGGSLRLSCAVSGIDLSNYAINWVRQAPGKGLEWIGIIWASGTTFYATWAKGRFTISRDNSKNTVYLQMNSLRAEDTAVYYCARTVPGYSTAPYFDLWGQGTLVTVSS
VL: DIQMTQSPSSVSASVGDRVTITCQSSPSVWSNFLSWYQQKPGKAPKLLIYEASKLTSGVPSRFSGSGTGTDFTLTISSLQPEDFATYYCGGGYSSISDTTFGGGTKVEIK
notes: Fab: human gamma1 CH1, human kappa (Km3); Kabat numbering
Kd (human serum albumin [4]): 2.49 nM | koff (human serum albumin [4]): 0.000142 s⁻¹ | kon (human serum albumin [4]): 57200 M⁻¹ s⁻¹

B6: CA645 gL33gH5 Fab (Fab, V domains shown)
VH: EVQLLESGGGLVQPGGSLRLSCAVSGIDLSNYAINWVRQAPGKGLEWIGIIWASGTTFYATWAKGRFTISRDNSKNTVYLQMNSLRAEDTAVYYCARTVPGYSTAPYFDLWGQGTLVTVSS
VL: DIQMTQSPSSVSASVGDRVTITCQSSPSVWSNFLSWYQQKPGKAPKLLIYEASKLTSGVPSRFSGSGEGTDFTLTISSLQPEDFATYYCGGGYSSISDTTFGGGTKVEIK
notes: as for B5
Kd (human serum albumin [4]): 3.32 nM | koff (human serum albumin [4]): 0.000179 s⁻¹ | kon (human serum albumin [4]): 54000 M⁻¹ s⁻¹

B7: CA645 gL28gH5 Fab (Fab, V domains shown)
VH: EVQLLESGGGLVQPGGSLRLSCAVSGIDLSNYAINWVRQAPGKGLEWIGIIWASGTTFYATWAKGRFTISRDNSKNTVYLQMNSLRAEDTAVYYCARTVPGYSTAPYFDLWGQGTLVTVSS
VL: DIQMTQSPSSVSASVGDRVTITCQSSPSVWSNFLSWYQQKPGKAPKLLIYEASKLTSGVPSRFSGSGLGTDFTLTISSLQPEDFATYYCGGGYSSISDTTFGGGTKVEIK
notes: as for B5
Kd (human serum albumin [4]): 1.85 nM | koff (human serum albumin [4]): 0.000109 s⁻¹ | kon (human serum albumin [4]): 59000 M⁻¹ s⁻¹

B8: CA645 gL25gH5 Fab (Fab, V domains shown)
VH: EVQLLESGGGLVQPGGSLRLSCAVSGIDLSNYAINWVRQAPGKGLEWIGIIWASGTTFYATWAKGRFTISRDNSKNTVYLQMNSLRAEDTAVYYCARTVPGYSTAPYFDLWGQGTLVTVSS
VL: DIQMTQSPSSVSASVGDRVTITCQSSPSVWFNFLSWYQQKPGKAPKLLIYEASKLTSGVPSRFSGSGSGTDFTLTISSLQPEDFATYYCGGGYSSISDTTFGGGTKVEIK
notes: as for B5
Kd (human serum albumin [8]): 3.85 nM | koff (human serum albumin [8]): 0.000217 s⁻¹ | kon (human serum albumin [8]): 56200 M⁻¹ s⁻¹

B9: CA645 gL26gH5 Fab (Fab, V domains shown)
VH: EVQLLESGGGLVQPGGSLRLSCAVSGIDLSNYAINWVRQAPGKGLEWIGIIWASGTTFYATWAKGRFTISRDNSKNTVYLQMNSLRAEDTAVYYCARTVPGYSTAPYFDLWGQGTLVTVSS
VL: DIQMTQSPSSVSASVGDRVTITCQSSPSVWYNFLSWYQQKPGKAPKLLIYEASKLTSGVPSRFSGSGSGTDFTLTISSLQPEDFATYYCGGGYSSISDTTFGGGTKVEIK
notes: as for B5
Kd (human serum albumin [8]): 4.13 nM | koff (human serum albumin [8]): 0.000248 s⁻¹ | kon (human serum albumin [8]): 60100 M⁻¹ s⁻¹

B12: CA645 gL24gH5 Fab (Fab, V domains shown)
VH: EVQLLESGGGLVQPGGSLRLSCAVSGIDLSNYAINWVRQAPGKGLEWIGIIWASGTTFYATWAKGRFTISRDNSKNTVYLQMNSLRAEDTAVYYCARTVPGYSTAPYFDLWGQGTLVTVSS
VL: DIQMTQSPSSVSASVGDRVTITCQSSPSVWVNFLSWYQQKPGKAPKLLIYEASKLTSGVPSRFSGSGSGTDFTLTISSLQPEDFATYYCGGGYSSISDTTFGGGTKVEIK
notes: as for B5
Kd (human serum albumin [8]): 16.1 nM | koff (human serum albumin [8]): 0.000883 s⁻¹ | kon (human serum albumin [8]): 54700 M⁻¹ s⁻¹

B13: CA645 gL30gH5 Fab (Fab, V domains shown)
VH: EVQLLESGGGLVQPGGSLRLSCAVSGIDLSNYAINWVRQAPGKGLEWIGIIWASGTTFYATWAKGRFTISRDNSKNTVYLQMNSLRAEDTAVYYCARTVPGYSTAPYFDLWGQGTLVTVSS
VL: DIQMTQSPSSVSASVGDRVTITCQSSPSVWSNFLSWYQQKPGKAPKLLIYEASKLTSGVPSRFSGSGIGTDFTLTISSLQPEDFATYYCGGGYSSISDTTFGGGTKVEIK
notes: as for B5
Kd (human serum albumin [4]): 1.61 nM | koff (human serum albumin [4]): 9.4e-05 s⁻¹ | kon (human serum albumin [4]): 58400 M⁻¹ s⁻¹

B14: CA645 gL32gH5 Fab (Fab, V domains shown)
VH: EVQLLESGGGLVQPGGSLRLSCAVSGIDLSNYAINWVRQAPGKGLEWIGIIWASGTTFYATWAKGRFTISRDNSKNTVYLQMNSLRAEDTAVYYCARTVPGYSTAPYFDLWGQGTLVTVSS
VL: DIQMTQSPSSVSASVGDRVTITCQSSPSVWSNFLSWYQQKPGKAPKLLIYEASKLTSGVPSRFSGSGQGTDFTLTISSLQPEDFATYYCGGGYSSISDTTFGGGTKVEIK
notes: as for B5
Kd (human serum albumin [4]): 2.44 nM | koff (human serum albumin [4]): 0.000143 s⁻¹ | kon (human serum albumin [4]): 58600 M⁻¹ s⁻¹

B15: CA645 gL29gH5 Fab (Fab, V domains shown)
VH: EVQLLESGGGLVQPGGSLRLSCAVSGIDLSNYAINWVRQAPGKGLEWIGIIWASGTTFYATWAKGRFTISRDNSKNTVYLQMNSLRAEDTAVYYCARTVPGYSTAPYFDLWGQGTLVTVSS
VL: DIQMTQSPSSVSASVGDRVTITCQSSPSVWSNFLSWYQQKPGKAPKLLIYEASKLTSGVPSRFSGSGVGTDFTLTISSLQPEDFATYYCGGGYSSISDTTFGGGTKVEIK
notes: as for B5
Kd (human serum albumin [4]): 1.78 nM | koff (human serum albumin [4]): 0.000103 s⁻¹ | kon (human serum albumin [4]): 57700 M⁻¹ s⁻¹

More lines, now with the values ahead:

fold difference of binding level to RSA against HSA (rat serum albumin [3]): ≤ 5 fold
B2: CA645 rabbit antibody secreted in B cell supernatant (antibody, V domains shown)
VH: QSLEESGGRLVTPGTPLTLTCTVSGIDLSNYAINWVRQAPGKGLEWIGIIWASGTTFYATWAKGRFTISRPSTTVDLEMTSLTTADTATYFCARTVPGYSTAPYFDLWGPGTLVTVSS
VL: AAVLTQTPSPVSAAVGGTVTINCQSSPSVWSNFLSWYQQKPGQPPKLLIYEASKLTSGVPSRFKGSGSGTQFTLTISDVQCGDAATYYCGGGYSSISDTTFGGGTKVVVK
notes: Rabbit IgG secreted by cultured B cells

Kd (human serum albumin [4]): 3.26 nM | koff (human serum albumin [4]): 0.000184 s⁻¹ | kon (human serum albumin [4]): 56400 M⁻¹ s⁻¹
B3: CA645 gL4gH46 Fab (Fab, V domains shown)
VH: EVQLLESGGGLVQPGGSLRLSCAVSGIDLSNYAINWVRQAPGKGLEWIGIIWASGTTFYATWAKGRFTISRDNSKNTVYLQMNSLRAEDTAVYYCARTYPGYSTAPYFDLWGQGTLVTVSS
VL: DIQMTQSPSSVSASVGDRVTITCQSSPSVWSNFLSWYQQKPGKAPKLLIYEASKLTSGVPSRFSGSGSGTDFTLTISSLQPEDFATYYCGGGYSSISDTTFGGGTKVEIK
notes: as for B5

Kd (rat serum albumin [5]): 7.9 nM | Kd (human serum albumin [6]): 0.82 nM | Kd (mouse serum albumin [7]): 2.9 nM
B4: CA645 humanized IgG1 (conservative graft gL1gH1) (antibody, V domains shown)
VH: EVQLLESGGGLVQPGGSLRLSCAVSGIDLSNYAINWVRQAPGKGLEWIGIIWASGTTFYATWAKGRFTISRDSTTVYLQMNSLRAEDTAVYYCARTVPGYSTAPYFDLWGQGTLVTVSS
VL: DIVMTQSPSSVSASVGDRVTITCQSSPSVWSNFLSWYQQKPGKAPKLLIYEASKLTSGVPSRFKGSGSGTDFTLTISSLQPEDFATYYCGGGYSSISDTTFGGGTKVEIK
notes: Human IgG1, full human gamma1 constant region, human kappa constant region (Km3 allotype); also called CA645 gL1gH1

Kd (human serum albumin [9]): 453 nM | koff (human serum albumin [9]): 0.0571 s⁻¹ | kon (human serum albumin [9]): 126000 M⁻¹ s⁻¹ | Kd (human serum albumin [10]): 254 nM | koff (human serum albumin [10]): 0.022 s⁻¹ | kon (human serum albumin [10]): 85000 M⁻¹ s⁻¹ | Kd (mouse serum albumin [11]): 316 nM | koff (mouse serum albumin [11]): 0.0038 s⁻¹ | kon (mouse serum albumin [11]): 12000 M⁻¹ s⁻¹ | fold weaker affinity than gL4gH5 (human serum albumin [12]): 368 fold | fold weaker affinity for MSA than for HSA (mouse serum albumin [13]): 1.2 fold
B10: CA645 gL5gH5 Fab (Fab, V domains shown)
VH: EVQLLESGGGLVQPGGSLRLSCAVSGIDLSNYAINWVRQAPGKGLEWIGIIWASGTTFYATWAKGRFTISRDNSKNTVYLQMNSLRAEDTAVYYCARTVPGYSTAPYFDLWGQGTLVTVSS
VL: DIQMTQSPSSVSASVGDRVTITCQSSPSVASNFLSWYQQKPGKAPKLLIYEASKLTSGVPSRFSGSGSGTDFTLTISSLQPEDFATYYCGGGYSSISDTTFGGGTKVEIK
notes: as for B5

Kd (human serum albumin [4]): 4.42 nM | koff (human serum albumin [4]): 0.000249 s⁻¹ | kon (human serum albumin [4]): 56400 M⁻¹ s⁻¹
B11: CA645 gL11gH5 Fab (Fab, V domains shown)
VH: EVQLLESGGGLVQPGGSLRLSCAVSGIDLSNYAINWVRQAPGKGLEWIGIIWASGTTFYATWAKGRFTISRDNSKNTVYLQMNSLRAEDTAVYYCARTVPGYSTAPYFDLWGQGTLVTVSS
VL: DIQMTQSPSSVSASVGDRVTITCQSSPNVWSNFLSWYQQKPGKAPKLLIYEASKLTSGVPSRFSGSGSGTDFTLTISSLQPEDFATYYCGGGYSSISDTTFGGGTKVEIK
notes: as for B5
